Laboratory results: article doi:10.1101/2025.05.24.655970

Molecular target: Dob3, ferritin-like diiron oxidase/oxygenase (FDO) of the dob gene cluster (Nocardia ninae)
Assay: SEC; size-exclusion chromatography of purified Dob3; column and buffer not told in the text shown (Supplementary Figure 19)

stoichiometry N: 2
Substance: Dob3, ferritin-like diiron oxidase/oxygenase (FDO) of the dob gene cluster (enzyme)
